Experiments:
[1] = Dissolution of insulin (optionally with aprotinin) in non-aqueous hydrophilic solvent/cosolvent; assay type: physicochemical; conditions: Insulin 7 mg
[2] = Appearance on addition of Akoline to the insulin solution; assay type: physicochemical; conditions: Insulin 7 mg
[3] = Gly (20 μl), PEG/L-lactic (20 μl/10 mg)
[4] = Gly (20 μl), PEG/NaAc (20 μl/10 mg)
[5] = Gly (40 μl), Acetic acid (10 mg)
[6] = Gly (40 μl), L-lactic acid (10 mg)
[7] = PD (40 μl), Na-L lactate (10 mg)
[8] = PEG (25 μl), DL-lactic acid (25 μl)
[9] = PEG (50 μl), Glycerol/TEA (50 μl/10 gl)
[10] = PG (40 μl), Acetic acid (10 mg)
[11] = PG (40 μl), Caproic acid (10 mg)
[12] = PG (40 μl), Citric acid (10 mg)

Substance: Insulin
- Soluble? [1, 3]: Yes
- Soluble? [1, 4]: Yes
- Soluble? [1, 5]: Yes
- Soluble? [1, 6]: Yes
- Soluble? ([1]; Gly (40 μl), NaAc (10 mg)): Yes
- Soluble? ([1]; PD (20 μl), benz. SO3H (10 mg)): Yes
- Soluble? ([1]; PD (40 μl), L-lactic (10 mg)): Yes
- Soluble? [1, 7]: Yes
- Soluble? ([1]; PD (40 μl), NaAc (10 mg)): Yes
- Soluble? ([1]; PEG (20 μl), L-lactic (10 mg)): Yes
- Soluble? ([1]; PEG (20 μl), NaAc (10 mg)): Yes
- Soluble? [1, 8]: Yes
- Soluble? ([1]; PEG (25 μl), DL-lactic acid (25 μl), listed as with Akoline/POE): Yes
- Soluble? ([1]; PEG (40 μl), camitine (10 mg)): Yes
- Soluble? [1, 9]: Yes
- Soluble? [1, 10]: Yes
- Soluble? [1, 11]: Yes
- Soluble? [1, 12]: Yes
- Addition of Akoline [2, 3]: Turbid
- Addition of Akoline [2, 4]: Clear
- Addition of Akoline [2, 5]: Opaque
- Addition of Akoline [2, 6]: Turbid
- Addition of Akoline ([2]; Gly (40 μl), NaAc (10 mg)): Translucent
- Addition of Akoline ([2]; PD (20 μl), benz. SO3H (10 mg)): Clear
- Addition of Akoline ([2]; PD (40 μl), L-lactic (10 mg)): Turbid
- Addition of Akoline [2, 7]: Clear
- Addition of Akoline ([2]; PD (40 μl), NaAc (10 mg)): Clear
- Addition of Akoline ([2]; PEG (20 μl), L-lactic (10 mg)): Translucent
- Addition of Akoline ([2]; PEG (20 μl), NaAc (10 mg)): Clear
- Addition of Akoline [2, 8]: Cloudy
- Addition of Akoline ([2]; PEG (25 μl), DL-lactic acid (25 μl), (Akoline/POE)): Suspension
- Addition of Akoline ([2]; PEG (40 μl), camitine (10 mg)): Clear solution
- Addition of Akoline [2, 9]: Suspension
- Addition of Akoline [2, 10]: Translucent
- Addition of Akoline [2, 11]: Translucent
- Addition of Akoline [2, 12]: Translucent
